According to US20150351390A1, “COMPOSITIONS AND METHODS FOR AUXIN-ANALOG CONJUGATION” (PIONEER HI-BRED INTERNATIONAL, INC., priority 2012, published 2015):

B1: GmGH3-21: GH3 protein, accession CAA42636 (protein)
chain: MAIATCDHDKNAKALQFIEDMTQNTESVQERVLAEILSQNSQTEYLKRFELNGATDRDTFKSKVPVVSYDDLKHDIHRIANGDRSPILCAHPISEFLTSSGTSAGERKLMPTIRQEMDRRQLIFSLPMPVMNQYVTDMDKGKALIFLFTKAEQKTPSGLVARPVSASMYKSDQFKNRPYDPYNVYTSPDEAILCPDSFQSMYTQMLCGLIMRHQVLRVGANFASGLLRSIHLLQLNWAQLSHDISTGTLNPKITDPAIKQRMTQILKPDPELAEFIVKECSGENWERIIPRIWPNTKYVEVVVTGAMAQYVPTLDYYSGGLPLASNIYGSSECFFGINLNPFCNPSDVSYTIMPNMGYFEFLPQDHDDASSSSGSSFTLSRLIDLDDVELGKSYEIVVTTYSGLCRYRVGDILRVTGFHNTAPQFSFVRRKNVLLSIDSDKTDEAELQNAVEKASVLLKEFKTSVVEYTSFADTKSIPGHYVIYWELLMKDSSNAPTTEALEQCCLTMEESLNAVYRQGRVADHSIGPLEIRVVKNGTFEELMDYAISRGASISQYKVPRCVTFTPITELLDSRVESVHFSPSEPHWTPERRR
modifications: Glycine max
B2: PiGH3-16: GH3 protein, accession CAJ14972 (protein)
chain: MPQAKREEGIESVQESIIIATTERNRKALDFIEHATIHAAEVQAEVLLEILTRNAYTEYLERYQLTGRTDRKSFKERLPVITYEDLQPEILRIANGDMSPILSAHPISEFLTSSGTSAGERKIMPTIHEELKRRTLLYSLLMPVMNQYMKGLDKGKGMYFLFVKSETRTPGGLLARPVLTSYYKSQDFIERPYDPYNVYTSPMEAILCSDSYQSMYCQLLCGLAQNHEVLRVGAVFASGLLRAIRFLEEHWQSLCQDIRSGTVNDEEVTDPCLRESVMKILHPNTQLADLIRTECSKESWQGIITRLWPNARYLDVIVTGAMAQYIKTLDFYSGGLPQVCTMYASSECYFGINLKPLCQPWEVSYTLMPNMAFFEFLPVYRNKNEDAGPVTTATEQPAELVDLVDVKVGQEYELVITTYSGLYRYRVGDVLRVTGFHNAAPQFQFVCRKNVMLSIDADKTDEAELHNAVMNAVKHLEPLEATLVEYTSYTDTSTIPGHYVLYWELRTSALPVPPSVFEDCCLTVEESLNSVYRQCRVADKSIGPLEIKVVEMGTFDKLMDYAISRGSSINQYKAARCVKFAPMVDILNSRVSASYFSPRCPKWTAGRTQWGALPR
modifications: Pinus pinaster
B3: AtGH3-6: GH3 protein, accession Q9LSQ4 (protein, listed as Arabidopsis thaliana)
chain: MPEAPKIAALEVSDESLAEKNKNKLQFIEDVTTNADDVQRRVLEEILSRNADVEYLKRHGLEGRTDRETFKHIMPVVTYEDIQPEINRIANGDKSQVLCSNPISEFLTSSGTSGGERKLMPTIEEELDRRSLLYSLLMPVMDQFVPGLDKGKGMYFLFIKSESKTPGGLPARPVLTSYYKSSHFKNRPYDPYTNYTSPNQTILCSDSYQSMYSQMLCGLCQHKEVLRVGAVFASGFIRAIKFLEKHWPELARDIRTGTLSSEITDSSVREAVGEILKPDPKLADFVESECRKTSWQGIITRLWPNTKYVDVIVTGTMSQYIPTLDYYSNGLPLVCTMYASSECYFGVNLRPLCKPSEVSYTLIPNMAYFEFLPVHRNSGVTSSISLPKALTEKEQQELVDLVDVKLGQEYELVVTTYAGLYRYRVGDVLSVAGFKNNAPQFSFICRKNVVLSIDSDKTDEVELQNAVKNAVTHLVPFDASLSEYTSYADTSSIPGHYVLFWELCLNGNTPIPPSVFEDCCLTIEESLNSVYRQGRVSDKSIGPLEIKMVESGTFDKLMDYAISLGASINQYKTPRCVKFAPIIELLNSRVVDSYFSPKCPKWSPGHKQWGSN
B4: MtGH3: GH3 protein, accession ABN09059 (protein, listed as Medicago truncatula)
chain: MPTSLDYDLSQKNKKTLDFIEDITTHADEIQKKVLAEILNRNANVEYLQRHGLNGHTDSETFKKLLPIITYEDIQNDINLIANGDTSPILTSNPISNFLTSSGTSGGERKLMPATEEEFGRRYLLYSYLMPIMSQFIPDLEKGKGMYLMFIKNESKTPGGIKASPVLTNYYKSSHFLNRPYDPYTNFTSPNETVLCLDSYQSMYSQLLCGLIQNNEVLRVGAVFASGLIRAIRFLEKNWRLLCNDIRTGTLDLLITDDSVREAVMKILKPNKNLADFVEGECNKGSWQGIITRLWPNTKYVDVIVTGTMSQYIPTLDYYSNGLPLVCTMYASSECYFGVNLNPLSKPCHVSYTLIPTMCYYEFLPVNRSNCEVNGSIPPSTTKSLGEKKYQEVVDLVDVKLGQEYELVVTTYAGLYRYKVGDVLKVTGFKNKAPQFSFVCRKNVVLSIESDKTDEVELQNAMKNAVTHLAPFEADVAEYTSYADTTTIPGHYVLYWELNLKGSTKIPHSVYEDCCLTIEESLNSVYRQGRVSDKSIGPLEIKIVEQGTFDKLMDYAINLGASINQYKTPRCVKFAPMVELLESRVMAKYFSPKCPKWVPGHKKWNNE
B5: NtGH3: GH3 protein, accession AAD32141 (protein, listed as Nicotiana tabacum)
chain: MAVDSVLSSPLGPPACEKDAKALQFIEEMTRNADAVQERVLNEILTRNSQTEYLKRFKLDGVSDRETFKNKIPVVTYEDLQPEIQRIANGDRSPILSAHPISEFLTSSGTSAGERKLMPTIKEELDRRQLLYSLLMPVMNLYVPGLDKGKGLYFLFIKSETKTPGGLLARPVLTSYYKSEHFKRRPHDPYNVYTSPNEAILCADSFQSMYTQMLCGLYEREQVLRLGAVFASGLVRAIRFLQLHWPQLAHDIRTGTLNPEITDPSICERMGLVMRPNPKLADFVTDECSKENWEGIITRIWPKTKYLDVIVTGAMAQYIPTLDYYSGGLPKACTMYAASECYFGLNLNPMCKPSEVSYTIMPNMGYFEFLPHDPNSSRDSTRNLVDLVDVEVGKEYELVITTYAGLYRYRVGDILRVTGFHNSAPQFHFVRRKNVLLSIDSDKTDEAELQRAVENASKLLKEFNTSVVEYTSYADTKTIPGHYVIYWELLMKDLNNSPSDEVLNKCCLAMEESLNTVYRQGRVACNSIGPLEIRVVKNGTFEELMDYAISRGASINQYKVPRCVSFAPILELLDSRVMSRHFSPSLPQWTPERRH
B6: PtGH3-1: GH3 protein, accession EEE70316 (protein, listed as Populus trichocarpa)
chain: MAIESVLSPLGPPACEKDAKALQFIEDMTANVDLVQERVLKEILTSNAETEYLQKYHLNGATDRDSFKSKIPMVTYEDLQPQIQRIANGDKSPILSSHPISEFLTSSGTSAGERKLMPTIEEEMDRRQLLYSLLMPVMNLYVPGLDKGKGLYFYFIKAEAKTPGGLVARPVLTSYYKSKQFKTRPYDPYNVITSPNETILCVDSFQSMYSQMLCGLIMREEVLRVGAVFASGLLRAIRFLQLNWKELANDISTGSLNPKVTNPSIRECMAKILKPNQELAEFITKECSDENWERIITRIWPNTKYLDVIVTGAMAQYIPTLDYYSGGLPKPCTMYASSECFFGLNLRPMSEPSEVSYTIMPNMGYFEFLPHDPSAPAFSRESPPRLLDLADLEVGKEYELVITTYSGLNRYRVGDILLVTGFYNKAPQFRFVRRKNVLLSIESDKTDEAELQKAIDNASLLLREFNTSVVEYTSYAETKIIPGHYVIYWELLVKDPANSPTEEVLNQCCLAMEESLNSVYRQSRVADNSIGPLEIRVVKNGTFEELMDYAISRGASINQYKVPRCVSFTPIMELLDSRVVSKHFSPSVPHWTPERRS
B7: CcGH3: GH3 protein, accession AAS02074 (protein)
chain: MAVDSVLSSPLGPPACEKDAKALQFIEEMTRNADAVQQRVLDEILTRNSQTEYLKRFKLDGVSDRETFKSRIPVVTYEDLQPEIQRIANGDRSPILSAHPISEFLTSSGTSAGERKLMPTIKEELDRRQLLYSLLMPVMNLYVPGLDKGKGLYFLFIKSETKTPGGLLARPVLTSYYKSEHFKSRPHDPYNVYTSPNEAILCADSFQSMYTQMLCGLYEREQVLRLGAVFASGLVRAIRFLQLHWPQLAHDIRTGNLNPQITNLSLCERMGKIMRPNPELADFVAGECCKENWEGIITRIWPKTKYLDVIVTGAMAQYIPTLDYYSGGLPKACTMYAASECYFGLNLNPMCKPSEVSYTIMPNMGYFEFLPHDSTTTNSSPTNLVDLVDVEVGKEYELVITTYAGLYRYRVGDILRVTGFHNSAPQFHFVRRKNVLLSIDADKTDEAELQKAVENASKLLREFNTSVVEYTSYADTKTIPGHYVIYWELLMKDLKNSPSDEVLNKCCLAMEESLNTVYRQGRVACNSIGPLEIRVVKNGTFEELMDYAISRGASINQYKVPRCVNFAPILELLDSRVMSSHFSPSLPQWTPERRR
modifications: Capsicum chinense

experiment: LC-MS assay of GH3 conjugation of IAA with Asp or Glu; assay type: biochemical; conditions: conjugation of IAA with Asp by recombinant GH3 protein; IAA-Asp product by LC-MS
Summary of the method: (§1)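 Rxn: 20 mM Tris-HCl pH 8.0, 5 mM MgCl2, 1 mM DTT, 5 mM ATP, 5 mM auxin, 5 mM Asp/Glu, 44–164 μg/mL purified His-GH3; 30° C., 3 h. MeOH quench, supernatant diluted 20×, LC-MS vs conjugate standards.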

Molecule	kcat (hrs−1) IAA-Asp [h⁻¹]
B1	1087.519
B2	656.761
B3	447.107
B4	337.033
B5	716.658
B6	900.907
B7	414.234

same assay, conditions: conjugation of IAA with Glu by recombinant GH3 protein; IAA-Glu product by LC-MS

Molecule	kcat (hrs−1) IAA-Glu [h⁻¹]
B1	1075.524
B2	51.037
B3	14.154
B4	11.549
B5	34.341
B6	39.695
B7	15.608

experiment: LC-MS assay of GH3 conjugation of 2,4-D with Asp or Glu; assay type: biochemical; conditions: conjugation of 2,4-D with Asp by recombinant GH3 protein; 2,4-D-Asp product by LC-MS; 5 mM 2,4-D substrate
Summary of the method: as §1

Molecule	kcat (hrs−1) 2,4-D-Asp [h⁻¹]
B1	27.468
B2	0.379
B3	2.136
B4	1.494
B5	1.990
B6	4.798
B7	2.517

same assay, conditions: conjugation of 2,4-D with Glu by recombinant GH3 protein; 2,4-D-Glu product by LC-MS; 5 mM 2,4-D substrate

Molecule	kcat (hrs−1) 2,4-D-Glu [h⁻¹]
B1	22.910
B2	0.089
B3	0.598
B4	0.122
B5	0.804
B6	0.181
B7	0.577
